In US20150004174A1 (Amgen, published 2015):
Each block holds one binder with its values, some of them ahead of it.

Assays:
[1] = biological target: human PCSK9 (proprotein convertase subtilisin kexin type 9), wild type (human, UniProt Q8NBP7 31-692, biotinylated in the ELISA formats (site not stated)); assay: cell-based or functional assay
human PCSK9 D374Y mutant = human PCSK9 D374Y mutant (human, UniProt Q8NBP7 31-692, biotinylated in the ELISA formats (site not stated)); assay: cell-based or functional assay
[2] = biological target: T1, mouse PCSK9, 8xHis tagged (mouse, UniProt Q80W65 35-694); assay: KinExA solution equilibrium
T1 construct: The biotinylated mouse PCSK9 of the hybridoma cross-reactivity screen is entered under this molecule; also called mPCSK9-8xHIS; mPCSK9; not shown: 8xHis tag named only in the label
T1 sequence (Q80W65 35-694): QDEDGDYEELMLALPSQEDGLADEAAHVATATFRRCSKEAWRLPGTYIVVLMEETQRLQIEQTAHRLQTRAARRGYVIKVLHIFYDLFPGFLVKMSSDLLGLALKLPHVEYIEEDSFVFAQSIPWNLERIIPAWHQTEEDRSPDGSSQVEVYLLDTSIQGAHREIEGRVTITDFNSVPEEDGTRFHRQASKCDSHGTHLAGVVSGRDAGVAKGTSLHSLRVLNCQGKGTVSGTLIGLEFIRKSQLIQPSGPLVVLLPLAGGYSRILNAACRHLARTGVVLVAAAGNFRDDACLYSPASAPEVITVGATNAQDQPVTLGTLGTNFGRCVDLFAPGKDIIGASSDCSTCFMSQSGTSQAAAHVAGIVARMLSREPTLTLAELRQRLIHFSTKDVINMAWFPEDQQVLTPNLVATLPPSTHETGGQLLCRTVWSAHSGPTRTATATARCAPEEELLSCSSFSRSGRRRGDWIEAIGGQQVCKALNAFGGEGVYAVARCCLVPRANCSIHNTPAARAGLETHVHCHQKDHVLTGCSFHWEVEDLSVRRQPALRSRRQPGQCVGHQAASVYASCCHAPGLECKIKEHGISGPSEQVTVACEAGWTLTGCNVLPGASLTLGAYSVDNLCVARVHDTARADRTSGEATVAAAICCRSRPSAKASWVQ

- EC50, block of PCSK9-mediated decrease of BODIPY-LDL uptake in HepG2 cells [1]: 124 nM
- EC50, block of PCSK9-mediated decrease of BODIPY-LDL uptake in HepG2 cells (human PCSK9 D374Y mutant): 35.3 nM
B1: 11F1 anti-PCSK9 antibody (antibody, V domains shown)
VH: EVQLVESGGGLVQPGGSLRLSCAASGFTFSNYWMSWVRQAPGKGLEWVASIKQDGSEKYYVDSVKGRFAISRDNAKNSLFLQMNSLRAEDTAVYYCARDLVLMVYDIDYYYYGMDVWGQGTTVTVSS
VL: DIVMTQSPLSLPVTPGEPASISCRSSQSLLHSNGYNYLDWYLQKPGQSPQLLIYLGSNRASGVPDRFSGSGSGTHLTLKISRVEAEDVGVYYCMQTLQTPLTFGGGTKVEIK

- fold lower affinity to mouse PCSK9 than to human and cyno PCSK9 [2]: 10 to 250 fold
B2: 16F12 human IgG4 (antibody, V domains shown)
VH: QVHLVESGGGVVQPGRSLRLSCAASGFTFNSFGMHWVRQAPGKGLEWVALIWSDGSDEYYADSVKGRFTISRDNSKNTLYLQMNSLRAEDTAVYYCARAIAALYYYYGMDVWGQGTTVTVSS
VL: QSVLTQPPSVSAAPGQKVTISCSGSSSNIGNNFVSWYQQLPGTAPKLLIYDYNKRPSGIPDRFSGSKSGTSATLGITGLQTGDEADYYCGTWDSSLSAYVFGTGTRVTVLQ
notes: also called 16F12.1; 16F12, anti-PCSK9 huIgG4
